From US20230293644A1, “ANTI-INFLAMMATORY PEPTIDES AND COMPOSITION COMPRISING THE SAME” (Gemvax & KAEL Co., Ltd., priority 2012, published 2023)

What was measured:
Type in all cases: cell-based, rat
neural stem cells = assay: Amyloid-β toxicity assessment on neural stem cells; conditions: 20 µM amyloid-β protein, 48 hours
Protocol: After removing the cortex from the head of an embryonic rat that had been pregnant for 13 days, it was cultured for a week with Basic Fibroblast Growth Factor (bFGF) to obtain the neural stem cells. To analyze the effects of the amyloid-β protein on the neural stem cells, the pre-oligomerized amyloid-β protein of concentrations 0 to 40 µM was treated on neural stem cells for 48 hours, then CCK-8 assay, BrdU, and TUNEL assay were used for cytotoxicity assessment (refer from BA Yankner et al, 1990 and KN Dahlgren et al, 2002).

HSP 70 = assay: 2D-electrophoresis protein expression in neural stem cells: HSP 70; conditions: β-amyloid alone; negative control 1.0
Protocol: (§1) Protein expression level of PEP-1 treated group and untreated group was analyzed by 2D-electrophoresis technique and antibody microarray technique. Prepared 200ug by extracting proteome from the neural stem cells cultured in Experiment 1-1 of example 3. In addition, the group in which PEP-1 was not treated was used as the comparison group in the same condition.
(§2) 2D-electrophoresis was performed using 12% acrylamide gels. First gel electrophoresis was performed at Pl 4~10N, using a gel size of 8.5×7cm. After electrophoresis, it was dyed with Colloidal Coomassie Blue, and then compared expression by using PDQuest software to analyze each spot.
(§3) Difference in the expression levels of more than 1.5 times was identified using MALDI-TOF MS (Matrix Desoprtion/lionization Time of Flight Mass Spectromestry). Among these, proteins correlated with inflammation-related signaling, such as i-NOS and HMGB-1 were identified (Refer to Table 6). The changes in protein expression levels either increased or decreased by 1.5 times by amyloid-β protein, but it was confirmed that expression level was regulated close to that of negative control when PEP-1 was added (Refer to FIG. 57).
(§4) The Table 6 below is an analysis of expression levels of proteins associated with inflammation by 2D electrophoresis technique. […]

HSP 90 = assay: 2D-electrophoresis protein expression in neural stem cells: HSP 90; conditions: β-amyloid alone; negative control 1.0
Protocol: as §1, §2, §3, §4

HHGB1 = assay: 2D-electrophoresis protein expression in neural stem cells: HHGB1; conditions: β-amyloid alone; negative control 1.0
Protocol: as §1, §2, §3, §4

GAUD 153 = assay: 2D-electrophoresis protein expression in neural stem cells: GAUD 153; conditions: β-amyloid alone; negative control 1.0
Protocol: as §1, §2, §3, §4

i-N0S = assay: 2D-electrophoresis protein expression in neural stem cells: i-N0S; conditions: β-amyloid alone; negative control 1.0
Protocol: as §1, §2, §3, §4

e-N0S = assay: 2D-electrophoresis protein expression in neural stem cells: e-N0S; conditions: β-amyloid alone; negative control 1.0
Protocol: as §1, §2, §3, §4

Pyk2 = assay: 2D-electrophoresis protein expression in neural stem cells: Pyk2; conditions: β-amyloid alone; negative control 1.0
Protocol: as §1, §2, §3, §4

MAP Kinase = assay: 2D-electrophoresis protein expression in neural stem cells: MAP Kinase; conditions: β-amyloid alone; negative control 1.0
Protocol: as §1, §2, §3, §4

Substance: amyloid-β protein
- cell survival (neural stem cells): 60%
- HSP 70 expression, 20ug β -amyloid treated group (fold) (HSP 70): -2.3 fold
- HSP 90 expression, 20ug β -amyloid treated group (fold) (HSP 90): -1.8 fold
- HHGB1 expression, 20ug β -amyloid treated group (fold) (HHGB1): -1.5 fold
- GAUD 153 expression, 20ug β -amyloid treated group (fold) (GAUD 153): 1.6 fold
- i-N0S expression, 20ug β -amyloid treated group (fold) (i-N0S): 1.9 fold
- e-N0S expression, 20ug β -amyloid treated group (fold) (e-N0S): 1.9 fold
- Pyk2 expression, 20ug β -amyloid treated group (fold) (Pyk2): 2.0 fold
- MAP Kinase expression, 20ug β -amyloid treated group (fold) (MAP Kinase): 2.2 fold
